In patent US20250340625A1, “ANTIBODY SPECIFICALLY BINDING TO ANGIOPOIETIN-2, OR FRAGMENT THEREOF” (NEORTESBIO INC., priority 2021, published 2025):

Tests used:
[1] = test system: Tie2 downstream signaling (AKT phosphorylation) in HUVEC cells; test: Phospho-Akt1 (Ser473) sandwich ELISA of Tie2 downstream signaling in HUVEC cells; type: cell-based
Method: To quantitatively analyze the effect of anti-Ang2 antibodies on Tie2 downstream signaling, the level of AKT phosphorylation was measured using ELISA.
HUVEC (Lonza) cells (2×10^5) were cultured at 37° C. using EGM-2 (Lonza) medium, and when 80-90% confluency was observed, they were changed to 0.5% FBS Basal media (Lonza) and cultured at 37° C. for 16 to 24 hours. 60 nM of anti-Ang2 antibody was mixed with 40 nM of Ang2 protein (Sino Biological) and left for 30 minutes. Then, the cultured cells were treated and incubated for another 10 minutes. For comparison, groups treated with 40 nM of Ang2, 40 nM of Ang2+60 nM of anti-Ang2 control antibody (h10D6-OPTI-67, U.S. Pat. No. 10,934,350) were prepared. The cells were washed with PBS, treated with the lysis buffer, centrifuged at 13,000 rpm for 15 minutes, and the supernatant was recovered to obtain a cell lysate.
For ELISA, 50 μL of PathScan®Phospho-Akt1 (Ser473) Sandwich ELISA Antibody Pair (Cell signaling) capture antibody diluted 1:100 was added to a 96 well ps half area plate (Greiner cio-one) and coated. Then, the plate was washed four times with PBST (Phosphate Buffer Saline containing 0.05% (v/v) Tween-20) and then blocked with PBST containing 1% (v/v) skim milk at 37° C. for […]. […] Afterwards, 50 μL of Stop solution was added to stop the reaction, and the OD450 value was measured on a plate reader (BioTek).

[2] = test system: Tie2 receptor downstream signaling in HUVEC cells; test: Western blot of AKT and ERK 42/44 phosphorylation (Tie2 downstream signaling) in HUVEC cells; type: cell-based; conditions: 60 nM anti-Ang2 antibody mixed with 40 nM Ang2, 10 minutes, FIG. 1
Method: Ang2 binds to the Tie2 receptor expressed on vascular endothelial cells and acts as a weak agonist or antagonist. Since the anti-Ang2 antibody developed in the present invention binds to Ang2 and forms a complex with Ang2-Tie2, thereby activating the Tie2 receptor and promoting downstream signaling, ERK and AKT phosphorylation experiments were performed to analyze the effect of anti-Ang2 antibodies on Tie2 downstream signaling using a cell-based assay. To compare the degree of activation of Tie2 downstream signaling, the same test was performed on the group treated with Ang2 (Sino Biological) and another Ang2 control antibody (Korean Patent Publication No. 10-2015-0136031).
Specifically, HUVEC (Lonza) cells (2×10^5) were cultured at 37° C. using EGM-2 (Lonza) medium, and when 80-90% confluency was observed, they were changed to 0.5% FBS Basal media (Lonza) for […]. Cultured at 37° C. for […]. 60 nM of anti-Ang2 antibody was mixed with 40 nM of Ang2 protein (Sino Biological) and left for 30 minutes. Then, the cultured cells were treated and incubated for another 10 minutes. For comparison, groups treated with 40 nM Ang2 and 40 nM Ang2+60 nM anti-Ang2 control antibody were prepared. […]

B1: 1D3: mouse anti-Ang2 monoclonal antibody; CDRs SEQ ID NO: 18-23, VH SEQ ID NO: 24, VL SEQ ID NO: 25 (antibody, V domains shown)
VH: DVQLQESGPGLVKPSQSLSLTCTVTGYSITSDYGWNWIRQFPGNKLEWMGYISYSGTTSYNPSLKSRISITRDTSKNQFFLQLNSVTTEDTATYYCARSEGTGFYAMDYWGQGTSVTVSSAKTTPPKLY
VL: SIVMTQTPKFLLVSAGDRVTIICKASQSVSNDVAWYQQKPGQSPKLLIYYASNRYTGVPDRFTGSGYGTDFTFTISTVQAEDLAVYFCQQDYSSPTFGGGTKLEIKRA
modifications: VH; VL
[1]; HUVEC cells together with Ang2, printed order 1D3, 2C8, 1A9, 1H10, control 67 clone
  Order of AKT phosphorylation curves in FIG. 2, from the curve with the highest value: highest
[1]; HUVEC cells, antibody together with 40 nM Ang2, OD450, FIG. 2
  Tie2 downstream signal (AKT phosphorylation ELISA) compared to previously known control antibodies: significantly stronger Tie2 downstream signal
[2]
  AKT and ERK activation signals (western blot) compared to the negative control group: showed AKT and ERK activation signals
